For three substances, stoichiometry N and stoichiometry N (actin per S1 (molar ratio 1:2.4)) results are on record in PMC7352912.

The target of the experiment is F-actin of ghost muscle fibres (rabbit (endogenous in m. psoas fibres)) (UniProt P68135). Kind of experiment: fluorescence intensity of labelled proteins bound in ghost muscle fibres; actin-Tpm-S1 complexes in ghost fibres; rigor (no nucleotide) or MgADP; with MgATP the ratio of S1 to actin was reduced. Particulars: for stoichiometry N: scale: actin per tropomyosin.

myosin subfragment-1, sequence (P02602 whole entry, looked up, the tested form may be a part): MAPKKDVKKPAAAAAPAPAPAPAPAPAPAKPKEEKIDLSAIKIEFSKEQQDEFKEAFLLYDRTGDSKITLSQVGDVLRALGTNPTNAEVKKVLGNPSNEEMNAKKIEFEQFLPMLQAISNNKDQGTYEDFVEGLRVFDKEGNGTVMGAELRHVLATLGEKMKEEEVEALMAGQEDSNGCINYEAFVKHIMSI
recombinant wild-type γ-tropomyosin (Tpm3.12) (natural protein), sequence (Q5KR47 whole entry): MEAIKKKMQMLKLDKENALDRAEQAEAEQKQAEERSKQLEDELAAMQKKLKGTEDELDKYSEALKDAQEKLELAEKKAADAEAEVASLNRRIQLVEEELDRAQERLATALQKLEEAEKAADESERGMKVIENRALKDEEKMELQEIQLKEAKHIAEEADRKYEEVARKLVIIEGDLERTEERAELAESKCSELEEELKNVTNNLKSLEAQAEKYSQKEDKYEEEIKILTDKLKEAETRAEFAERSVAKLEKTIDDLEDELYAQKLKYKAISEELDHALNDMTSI

For “E173A mutant γ-tropomyosin (Tpm3.12) (natural protein)”, the stoichiometry N – broadly, a count of units in the complex or per binding partner – came to 7.
Turning to “myosin subfragment-1 (from UniProt P02602 1-192) (complex)”, the stoichiometry N (actin per S1 (molar ratio 1:2.4)) stood at 2.4.
Consider “recombinant wild-type γ-tropomyosin (Tpm3.12) (natural protein)”, for which the stoichiometry N worked out at 7.
